Experiment [1] addresses CD3 on Jurkat细胞 (Jurkat靶标细胞) (human) (UniProt P07766). In words: flow cytometry (FACSCalibur), culture supernatant on Jurkat cells; negative control sdAb. For orientation: In flow cytometry, cells or beads pass a laser one at a time.
The target is the same in experiment [2]. In words: flow cytometry (FACSCalibur), culture supernatant on Jurkat cells.
The target in a further experiment is T1, CD3-His蛋白(MP-5) (human, UniProt P07766 23-126).
T1 construct: also called CD3蛋白; not shown: His tag
T1 sequence (P07766 23-126): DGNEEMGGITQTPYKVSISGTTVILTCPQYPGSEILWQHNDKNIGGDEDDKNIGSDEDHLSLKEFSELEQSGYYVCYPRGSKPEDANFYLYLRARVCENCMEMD
In words: BLI (Octet RED96) off-rate screening; sdAb-SASA from expression medium captured on BSA-coated biosensor, CD3 at 100 nM in solution, 30°C, 1:1 Langmuir model. (In general: BLI is a label-free optical method that tracks binding on a fibre tip over time.)

The koff is the first-order rate constant of dissociation. A high value points to fast dissociation.

On to NC-sdAb (相同形式的非相关性sdAb) (VHH), for which, in experiment [1], the MFI came to 115 MFI.

B1: 抗CD3单域抗体 C12 (sdAb clone C12) (VHH)
VHH: QVQLQESGGGLVQPGGSLRLSCAASGSMYRPNTMGWHRQAPGEQRKLVARITSDGNTNYADSVKGRFTISRDNAKNTVHLEMNSLQPEDTAVYYCYYSDFVNLRGFWGQGTQVTVSS
notes: Llama sdAb from a phage display library; Tested as unpurified sdAb-SASA protein in E. coli expression medium or culture supernatant; 1 in its text; also called sdAb-SASA; not shown: SASA fusion partner from the pFASEBA vector (sdAb-SASA protein in expression medium)
B1 registered an MFI in experiment [2] of 2330 MFI. In addition, the off-rate (koff) in the experiment with CD3-His蛋白(MP-5) worked out at 6.61e-05 s⁻¹.

The values are drawn from CN106117359A (UNIV SUN YAT SEN, dated 2016).
